Laboratory results from article PMC4918631 (Chembiochem : a European journal of chemical biology, 2016).

T1: SipD (residues 39-343, C244S) (Salmonella typhimurium strain SL1344, UniProt Q56026 39-343, C244S)
T1 sequence: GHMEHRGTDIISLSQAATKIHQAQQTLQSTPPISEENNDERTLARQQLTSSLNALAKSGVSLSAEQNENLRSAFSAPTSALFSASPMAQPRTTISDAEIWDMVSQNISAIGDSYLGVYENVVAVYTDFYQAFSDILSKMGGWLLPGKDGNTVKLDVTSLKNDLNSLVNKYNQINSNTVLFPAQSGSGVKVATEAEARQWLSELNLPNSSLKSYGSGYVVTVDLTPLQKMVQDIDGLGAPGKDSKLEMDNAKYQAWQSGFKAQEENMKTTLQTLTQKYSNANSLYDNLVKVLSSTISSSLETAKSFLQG

B1: SipB^82-312 D207C, MTSL spin-labeled (domain or fragment)
chain: EGQLTLLLGKLMTLLGDVSLSQLESRLAVWQAMIESQKEMGIQVSKEFQTALGEAQEATDLYEASIKKTDTAKSVYDAATKKLTQAQNKLQSLDPADPGYAQAEAAVEQAGKEATEAKEALDKATCATVKAGTDAKAKAEKADNILTKFQGTANAASQNQVSQGEQDNLSNVARLTMLMAMFIEIVGKNTEESLQNDLALFNALQEGRQAEMEKKSAEFQEETRKAEETNR
modifications: MTSL nitroxide spin label on the engineered cysteine at 207
B2: SipB^82-312 Asn-283 cysteine mutant, MTSL spin-labeled (domain or fragment)
chain: EGQLTLLLGKLMTLLGDVSLSQLESRLAVWQAMIESQKEMGIQVSKEFQTALGEAQEATDLYEASIKKTDTAKSVYDAATKKLTQAQNKLQSLDPADPGYAQAEAAVEQAGKEATEAKEALDKATDATVKAGTDAKAKAEKADNILTKFQGTANAASQNQVSQGEQDNLSNVARLTMLMAMFIEIVGKNTEESLQNDLALFCALQEGRQAEMEKKSAEFQEETRKAEETNR
modifications: MTSL nitroxide spin label on the engineered cysteine at 283
B3: SipB^82-312 Lys-211 cysteine mutant, MTSL spin-labeled (domain or fragment)
chain: EGQLTLLLGKLMTLLGDVSLSQLESRLAVWQAMIESQKEMGIQVSKEFQTALGEAQEATDLYEASIKKTDTAKSVYDAATKKLTQAQNKLQSLDPADPGYAQAEAAVEQAGKEATEAKEALDKATDATVCAGTDAKAKAEKADNILTKFQGTANAASQNQVSQGEQDNLSNVARLTMLMAMFIEIVGKNTEESLQNDLALFNALQEGRQAEMEKKSAEFQEETRKAEETNR
modifications: MTSL nitroxide spin label on the engineered cysteine at 211

These binders were tested against T1, SipD (residues 39-343, C244S) (assay: NMR paramagnetic relaxation enhancement).
B1: binds. B2: binds. B3: binds.
